Results: patent publication US20160362487A1 (Regeneron, published 2016)

Columns and labels:
[1] = target: T1, human IL-33 (R&D Systems, #3625-IL-010/CF) (human, UniProt O95760 112-270); assay: cell-based or functional assay
T1 sequence (looked up): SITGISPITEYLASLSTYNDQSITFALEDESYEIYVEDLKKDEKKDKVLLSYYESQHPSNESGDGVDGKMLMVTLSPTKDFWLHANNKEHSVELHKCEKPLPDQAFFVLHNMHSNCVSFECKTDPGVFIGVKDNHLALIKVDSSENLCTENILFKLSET

[2] = target: T2, cynomolgus monkey IL-33 expressed with a C-terminal hexahistidine tag (cynomolgus monkey); assay: cell-based or functional assay
T2 chain: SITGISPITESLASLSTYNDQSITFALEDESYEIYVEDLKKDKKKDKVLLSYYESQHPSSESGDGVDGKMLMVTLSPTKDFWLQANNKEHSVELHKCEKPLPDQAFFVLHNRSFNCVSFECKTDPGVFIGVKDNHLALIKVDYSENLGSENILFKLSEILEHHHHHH

[3] = target: T3, pre-formed complex of hIL-33 and captured hST2-MMH (human, UniProt O95760 112-270); assay: SPR 25C, 100 nM mAb over hIL-33/hST2-MMH complex
T3 construct: Ligand-receptor complex on the sensor: hST2-MMH captured by anti-myc mAb and saturated with 100 nM hIL-33; also called hIL-33 pre-complexed with hST2-MMH
Protocol: The ability of anti-IL-33 antibodies to bind to a pre-formed complex of IL-33 with ST2 was tested using Biacore T-200 instrument equipped with a real-time surface plasmon resonance biosensor. The experiment was performed at 25° C. with a running buffer composed of 0.01M HEPES pH 7.4, 0.15M NaCl, 3 mM EDTA, and 0.05% v/v Surfactant Tween-20 (HBS-ET). […] The captured hST2-MMH surface was then saturated by injecting 100 nM of human IL-33 (hIL-33; R&D Systems, #3625-IL-010/CF) for 3 minutes followed by a 3 minute injection of a 100 nM solution of the anti-IL-33 monoclonal antibody. The real-time binding response was monitored during the entire course of the experiment, and the observed binding response at 3 minutes after injection of anti-IL-33 antibody to the pre-formed complex of hIL-33 and captured hST2-MMH was recorded and tabulated and shown in Table 7. No non-specific binding of anti-IL-33 monoclonal antibody to the anti-myc tag capture surface was observed.

[4] = target: T2, cynomolgus monkey IL-33 expressed with …; assay: BLI; captured MfIL-33-6His, mAb-1 step with Buffer
Protocol: (§1) Binding competition between a panel of different anti-IL-33 monoclonal antibodies was determined using a real time, label-free bio-layer interferometry assay on an Octet® HTX biosensor (ForteBio, A Division of Pall Life Sciences). The experiment was performed at 25° C. using a buffer of 0.01M HEPES pH7.4, 0.15M NaCl, 3 mM EDTA, 0.05% v/v Surfactant Tween-20, and 0.1 mg/ml BSA (HBS-ET kinetics buffer) with the plate shaking at a speed of 1000 rpm. […] The antigen-captured biosensors were then saturated with a first anti-IL-33 monoclonal antibody (subsequently referred to as mAb-1) by immersion into wells containing 50 μg/mL solution of mAb-1 for 5 minutes. The biosensors were then dipped into wells containing a 50 μg/mL solution of a second anti-IL-33 monoclonal antibody (subsequently referred to as mAb-2) for 4 minutes. The biosensors were washed in HBS-ET kinetics buffer in between every step of the experiment. The real-time binding response was monitored during the experiment, and the maximum binding response for each binding step was recorded. The response of mAb-2 binding to MfIL-33-6His pre-complexed with mAb-1 was measured, and competitive/non-competitive behavior of different anti-IL-33 monoclonal antibodies with respect to each other was determined.

[5] = target: T2, cynomolgus monkey IL-33 expressed with …; assay: BLI; mAb-1 on captured MfIL-33-6His
Protocol: as §1

[6] = target: T2, cynomolgus monkey IL-33 expressed with …; assay: SPR 25C pH7.4, mAb captured
Protocol: (§2) Equilibrium dissociation constants (KD values) for IL-33 binding to purified anti-IL-33 monoclonal antibodies were determined using a real-time surface plasmon resonance biosensor using a Biacore 4000 instrument. The Biacore sensor surface was first derivatized by amine coupling with either a polyclonal rabbit anti-mouse antibody (GE, # BR-1008-38) or with a monoclonal mouse anti-human Fc antibody (GE, # BR-1008-39) to capture anti-IL-33 monoclonal antibodies expressed with mouse or with human IgG4 constant regions, respectively. All Biacore binding studies were performed in 0.01M ADA pH 7.4, 0.15M NaCl, 3 mM EDTA, and 0.05% v/v Surfactant Tween-20 (ABS-ET running buffer). […] Association of either hIL-33 or MfIL-33-6His to the captured monoclonal antibody was monitored for 4 minutes and their dissociation in ABS-ET running buffer was monitored for 10 minutes. The effect of reduced pH on the binding of each anti-IL-33 antibody to either hIL-33 or MfIL-33-6His was studied using an in-line pH chase assay format in 0.01M ADA pH 6.0, 0.15M NaCl, 3 mM EDTA, and 0.05% v/v Surfactant Tween-20 (ABS-ET pH6 buffer). To achieve this, association of either hIL-33 or MfIL-33-6His to the captured monoclonal antibody was monitored for 4 minutes in ABS-ET running buffer. Following a 30 second dissociation of either hIL-33 or MfIL-33-6His in ABS-ET running buffer, ABS-ET pH6 buffer was injected for 3 minutes, and the analyte dissociation under the low-pH conditions was measured. All the binding kinetic experiments were performed at both 25° C. and 37° C. Kinetic association (kₐ) and dissociation (kd) constants were determined by fitting the real-time sensorgrams to a 1:1 binding model using Scrubber 2.0c curve fitting software. Binding dissociation equilibrium constants (KD) and dissociative half-lives (t½) were calculated from the kinetic rate constants as: […]

[7] = target: T2, cynomolgus monkey IL-33 expressed with …; assay: BLI; captured MfIL-33-6His, mAb-1 step with Isotype control
Protocol: as §1

[8] = target: T1, human IL-33 (R&D Systems, …); assay: SPR 25C pH7.4, mAb captured
Protocol: as §2

B1: H1M9565N (antibody, mouse IgG1, V domains shown)
VH: QVTLKESGPVLVKPTESLTLTCSVSGFSLSNVRMGVSWIRQSPGKALEWLAHIFSNDEKSYTTSLKTRLTISKDTSRSQVVLTMTDMDPGDTATYYCARIRNLAFNYWGQGTLVTVSS
VL: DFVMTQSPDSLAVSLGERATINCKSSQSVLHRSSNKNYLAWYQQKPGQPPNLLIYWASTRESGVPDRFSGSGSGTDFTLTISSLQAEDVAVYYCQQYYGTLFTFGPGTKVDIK
notes: Human variable domains, mouse IgG1 Fc (H1M)
B1 was tested, and the “IC50, inhibition of 10 pM hIL-33 activation of HEK293/hST2/NFkB-luciferase cells” value [1] was 2.9e-08 M, the “IC50, inhibition of 5 pM MfIL-33-6His activation of HEK293/hST2/NFkB-luciferase cells” value [2] was 1.7e-08 M and the “Antibody Binding Response (RU)” value [3] was 11 RU. The “mAb-2 Binding to the Pre-complex of mAb-1 & MfIL-33-6xHis” value (“mAb-2 Binding to the Pre-complex” below) [4] was 0.34 nm, the “mAb-1 Binding (nm)” value [5] was 0.46 nm and the Kd [6] was 1.77 nM. It also gave a koff [6] of 7.2e-05 s⁻¹, a kon [6] of 40600 M⁻¹ s⁻¹ and a t½ [6] of 160 min. The “mAb-2 Binding to the Pre-complex” value [7] was 0.34 nm.

B2: H1M9568N (antibody, mouse IgG1, V domains shown)
VH: QVLLVQSGAEVKKPGATVKVSCKASGSTFTGYYMHWVRQAPGQGLEWMGWINPNNGGTNYAQKFQGRVTMTRDTSISTAYMELSRLRSDDTAVYYCARELRYNWKSWGQGTLVTVSS
VL: EIVLTQSPGTLSLSPGERVTLSCRASQSVGRPYLAWYQQIPGQAPRLLIYGASSRATDIPDRFSGNGSGTDFTLTISRLEPEDFAVYYCQQYDNSPYTFGQGTRLEIK
notes: as for B1
B2 was tested, and the “IC50, inhibition of 10 pM hIL-33 activation of HEK293/hST2/NFkB-luciferase cells” value [1] was 2.5e-10 M, the “IC50, inhibition of 5 pM MfIL-33-6His activation of HEK293/hST2/NFkB-luciferase cells” value [2] was 3.5e-09 M and the “Antibody Binding Response (RU)” value [3] was 131 RU. For the same binder, the “mAb-2 Binding to the Pre-complex” value [4] was 0.37 nm, the “mAb-1 Binding (nm)” value [5] was 0.5 nm and the Kd [8] was 0.184 nM. For the same binder, the koff [8] was 0.00013 s⁻¹, the kon [8] was 702000 M⁻¹ s⁻¹ and the t½ [8] was 89 min. For the same binder, the Kd [6] was 1.07 nM, the koff [6] was 0.000261 s⁻¹ and the kon [6] was 244000 M⁻¹ s⁻¹. The t½ [6] was 44 min and the “mAb-2 Binding to the Pre-complex” value [7] was 0.34 nm.

B3: H4H9640P (antibody, human IgG4, V domains shown)
VH: QVQLQESGPGLVKPSETLSLTCTVSGGSISSYYWSWIRQPPGKGLELIGYIYYSGSTNYNPSLKSRVTISVDTSKNHFSLKLSSVTAADTAVYYCARSQYTSSWYGSFDIWGQGTMVTVSS
VL: DIQMTQSPSSVSASVGDRVTITCRASQGISTWLAWFQQKPGKAPKLLIYAASTLQGGVPSRFSGSGSGPEFTLTISSLQPEDFATYYCQQANSFPWTFGQGTKVEIK
notes: Human IgG4 Fc (H4H)
B3 was tested, and the “IC50, inhibition of 10 pM hIL-33 activation of HEK293/hST2/NFkB-luciferase cells” value [1] was 3e-11 M, the “IC50, inhibition of 5 pM MfIL-33-6His activation of HEK293/hST2/NFkB-luciferase cells” value [2] was 1.4e-08 M and the “Antibody Binding Response (RU)” value [3] was -1 RU. For the same binder, the “mAb-2 Binding to the Pre-complex” value [4] was 0.33 nm, the “mAb-1 Binding (nm)” value [5] was 0.61 nm and the Kd [8] was 0.26 nM. It also gave a koff [8] of 0.000237 s⁻¹, a kon [8] of 912000 M⁻¹ s⁻¹ and a t½ [8] of 49 min. The Kd [6] was 3.06 nM, the koff [6] was 0.00137 s⁻¹ and the kon [6] was 450000 M⁻¹ s⁻¹. For the same binder, the t½ [6] was 8 min and the “mAb-2 Binding to the Pre-complex” value [7] was 0.28 nm.

B4: H1M9566N (antibody, mouse IgG1, V domains shown)
VH: EVQLLESGGDLVQPGGSLRLSCAASGFTFSSYAMSWVRQAPGKGLEWVSVISGSGSSTDYADSVKGRFTISRDNSRDTLHLQMNSLRAEDTAVYYCAKTFYYFYGLDVWGQGTTVTVSS
VL: DIQMTQSPSSLSASLRDRVTITCRASQGISNYLAWYQQKPGKVPKVLIYAASTLQSGVPSRFSGSGSGTVFTLTISSLQTEDVATYYCQKYSSAPFTFGPGTKVDIK
notes: as for B1
With B4 the “IC50, inhibition of 10 pM hIL-33 activation of HEK293/hST2/NFkB-luciferase cells” value [1] was 9.5e-10 M, the “IC50, inhibition of 5 pM MfIL-33-6His activation of HEK293/hST2/NFkB-luciferase cells” value [2] was 1.5e-09 M and the “Antibody Binding Response (RU)” value [3] was 13 RU. The “mAb-2 Binding to the Pre-complex” value [4] was 0.39 nm, the “mAb-1 Binding (nm)” value [5] was 0.58 nm and the kon [8] was 127000 M⁻¹ s⁻¹. It also gave a Kd [6] of 0.333 nM, a koff [6] of 9.75e-05 s⁻¹ and a kon [6] of 293000 M⁻¹ s⁻¹. The t½ [6] was 119 min and the “mAb-2 Binding to the Pre-complex” value [7] was 0.38 nm.

B5: H4H9629P (antibody, human IgG4, V domains shown)
VH: EVQLVESGGGLVQPGGSLRLSCAASGFTFRSFAMSWVRQAPGKGLELVSDLRTSGGSTYYADSVKGRLTISRDNSKNTLYLQMNSLRAEDTAVYYCAKSHYSTSWFGGFDYWGQGTLVTVSS
VL: DIQMTQSPSSVSASVGDRVTITCRASQGFSSWLAWYQQKPGKAPKLLIYAASSLQSGVPSRFSGSGSGTDFTLTITNLQPEDFATYYCQQANSFPLTFGGGTKVEIK
notes: Human IgG4 Fc (H4H)
B5 was tested, and the “IC50, inhibition of 10 pM hIL-33 activation of HEK293/hST2/NFkB-luciferase cells” value [1] was 1.3e-11 M, the “IC50, inhibition of 5 pM MfIL-33-6His activation of HEK293/hST2/NFkB-luciferase cells” value [2] was 5.5e-08 M and the “Antibody Binding Response (RU)” value [3] was -1 RU. For the same binder, the “mAb-2 Binding to the Pre-complex” value [4] was 0.3 nm, the “mAb-1 Binding (nm)” value [5] was 0.72 nm and the Kd [8] was 0.29 nM. The koff [8] was 0.000226 s⁻¹, the kon [8] was 777000 M⁻¹ s⁻¹ and the t½ [8] was 51 min. The Kd [6] was 23.9 nM, the koff [6] was 0.0135 s⁻¹ and the kon [6] was 562000 M⁻¹ s⁻¹. For the same binder, the t½ [6] was 0.9 min and the “mAb-2 Binding to the Pre-complex” value [7] was 0.26 nm.

B6: H4H9633P (antibody, human IgG4, V domains shown)
VH: EVQLVESGGGLVQPGGSLRLSCAASGFTFSSYVMSWVRQAPGKGLEWVSSISGNGGSTNYADSVKGRFTISRDNSKNTLFLEMNSLRAEDTAVYYCAKSLGTTTTFLGFDYWGQGTLVTVSS
VL: DIQMTQSPSSVSASVGDRVTITCRASQGISSWLAWYQQKPGKAPKLLIYAASSLQSGVPSRFSGSGSGTYFTLTISSLQPEDFATYYCQQANSFPLTFGGGTKVEIK
notes: Human IgG4 Fc (H4H)
For B6, the “IC50, inhibition of 10 pM hIL-33 activation of HEK293/hST2/NFkB-luciferase cells” value [1] was 2.2e-10 M, the “IC50, inhibition of 5 pM MfIL-33-6His activation of HEK293/hST2/NFkB-luciferase cells” value [2] was 1.3e-07 M and the “Antibody Binding Response (RU)” value [3] was -1 RU. For the same binder, the “mAb-2 Binding to the Pre-complex” value [4] was 0.32 nm, the “mAb-1 Binding (nm)” value [5] was 0.64 nm and the Kd [8] was 0.432 nM. For the same binder, the koff [8] was 0.000283 s⁻¹, the kon [8] was 656000 M⁻¹ s⁻¹ and the t½ [8] was 41 min. The Kd [6] was 38 nM, the koff [6] was 0.00997 s⁻¹ and the kon [6] was 262000 M⁻¹ s⁻¹. The t½ [6] was 1.2 min and the “mAb-2 Binding to the Pre-complex” value [7] was 0.28 nm.
